Source: the supplement of paper PMC9732359
± gives the uncertainty stated by the source.

Experiment: protein stability index of a GFP-peptide fusion (yeast GPS) (PSI 1-4); higher = more stable; sorted into four equal gates, so the index is relative within each strain
How it was run: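 Tiled yeast protein peptides of 17 residues were each joined downstream of GFP, on plasmids that also express Cherry. The pooled library was maintained in yeast, and mid-log cultures in leucine-free medium were sorted into four equal gates on the GFP/Cherry ratio. Plasmids from every gate were amplified by PCR and sequenced on Illumina, with barcodes linking reads to strains. The protein stability index of a peptide is its gate-number-weighted read frequency summed over the gates.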

Sequence	protein stability index (doa10∆)	protein stability index (pdr5∆)	protein stability index (san1∆)	protein stability index (ubr1∆)
SPSYSPTSPSYSPTSPS [RPO21]	2 ± 0.032	2.33 ± 0.03	2.06 ± 0.034	2.1 ± 0.025
TINISLSFSWAILLIIN [NUT1]	1.35 ± 0.06	1.61 ± 0.054	1.93 ± 0.078	2.43 ± 0.044
QEELKKRQELEEASQQQ [MED2]	2.96 ± 0.058	3.2 ± 0.076	2.47 ± 0.071	3.29 ± 0.046
TDKIGRSVPAPGKGILT [FAS2]	2.95 ± 0.17	3.16 ± 0.13	2.79 ± 0.2	3.21 ± 0.12
EALVERRRAFKRSQKKH [RPB4]	3.12 ± 0.099	3.2 ± 0.081	3.22 ± 0.062	3.31 ± 0.11
KNLERLRGEYNDLQSET [SMC4]	3.33 ± 0.2	3.4 ± 0.083	3.25 ± 0.067	2.9 ± 0.06
SVANTPSEIPDAHKAEQ [SWI3]	3.04 ± 0.066	3.25 ± 0.065	3.42 ± 0.077	3.03 ± 0.061
KLSKEERAARVAAKIAA [RPL5]	2.54 ± 0.13	2.93 ± 0.079	2.49 ± 0.2	2.52 ± 0.078
ILHVRAQYCYKNGLYQE [SRP72]	2.86 ± 0.073	2.94 ± 0.095	3.1 ± 0.068	3.25 ± 0.057
AAGKRISHIEKRIESLQ [SMC1]	3.09 ± 0.099	3.07 ± 0.096	2.93 ± 0.073	3.08 ± 0.095
ETDGKHGKRRSQVVETH [YMR129W/POM152]	3.27 ± 0.11	2.93 ± 0.097	3.21 ± 0.056	3.11 ± 0.048
ERRMQVTAEDFKQAKER [RPT2]	3.02 ± 0.1	3.29 ± 0.11	3 ± 0.088	3.56 ± 0.12
LTESQTETYISDLVNQG [RPN5]	3.18 ± 0.076	3.38 ± 0.071	3.12 ± 0.051	3.21 ± 0.071
QQMIITRLKSLLKPFHV [SIR3]	2.17 ± 0.07	2.08 ± 0.053	2 ± 0.073	1.99 ± 0.035
LFQVEYSLEAIKLGSTA [PUP2]	1.61 ± 0.075	2.32 ± 0.069	2.08 ± 0.12	2.2 ± 0.053
NELPDIEALYDDDTFSD [RPN2]	3.12 ± 0.1	3.35 ± 0.13	3.23 ± 0.12	2.98 ± 0.081
KIYINLALGSHNKLIQF [SSN2]	2.57 ± 0.17	1.83 ± 0.078	2.13 ± 0.11	2.22 ± 0.071
MGKGKPRGLNSARKLRV [RPS23A]	2.4 ± 0.089	3.05 ± 0.08	2.96 ± 0.094	2.79 ± 0.072
FTGNNSTPGGGSVFNMN [YOR098C/NUP1]	2.9 ± 0.097	3.58 ± 0.19		3.03 ± 0.14
RTSTRGRGRGRGRGRGR [SNF2]	3.41 ± 0.11	3.17 ± 0.12	2.86 ± 0.098	3.08 ± 0.15
VWNYTFMGTAFNQEGDY [PRP8]		3.09 ± 0.19	2.73 ± 0.28	
SSRLEFVKGISRDIKAL [YML103C/NUP188]	2.39 ± 0.081	1.81 ± 0.057	1.99 ± 0.085	1.62 ± 0.04
ITYDKQEPSASQVKDSV [SRP68]	3.14 ± 0.046	3.12 ± 0.062	2.98 ± 0.053	2.99 ± 0.071
DFTLIPRMASVFENYVK [CDC53]	3.15 ± 0.091	2.88 ± 0.06	2.71 ± 0.061	3.13 ± 0.081
EGQENNYNSTSRSTEKK [SIR4]	3.3 ± 0.17	3.26 ± 0.13	2.65 ± 0.17	3.25 ± 0.11

Sequence	protein stability index (doa10∆)	protein stability index (pdr5∆)	protein stability index (san1∆)	protein stability index (ubr1∆)
LERIVQIMQNPTHYKIP [RPS18A]	2.61 ± 0.1	3.1 ± 0.11	2.9 ± 0.065	2.74 ± 0.12
AAPKKTRKAVRPQKLRA [RPL6B]	2.64 ± 0.11	2.61 ± 0.29	2.8 ± 0.16	
FTLLDFKKQMQTIMKMG [SRP54]	1.36 ± 0.13	2.67 ± 0.15	1.42 ± 0.17	2.71 ± 0.17
PLKYTKLIAAAEDGSRS [SNF6]	1.3 ± 0.23	1.49 ± 0.11	1.19 ± 0.21	1.57 ± 0.18
GNEVSSLYPPPPPYVKF [MED7]	3.17 ± 0.087	3.08 ± 0.065	2.74 ± 0.079	3.13 ± 0.049
NGNITYSEEPREKVRKL [FAS2]	2.99 ± 0.17	3.54 ± 0.18	3.3 ± 0.2	3.53 ± 0.18
MSGTTKRLNGKRKYLDI [SSN2]				3.55 ± 0.12
RDMIMKRNSDKVEYKIV [ITC1]	1.78 ± 0.078	1.83 ± 0.078	1.85 ± 0.12	1.31 ± 0.047
QQWGNDFYKRDPRIAPL [FAS2]	1.88 ± 0.058	2 ± 0.048	1.87 ± 0.1	2 ± 0.05
RQSKSSGKSNTSNDASN [ITC1]	3.09 ± 0.095	3.28 ± 0.08	3.34 ± 0.065	3.22 ± 0.076
PTLPRSDRECPKCHSRE [RPB9]	2.79 ± 0.052	2.92 ± 0.056	2.82 ± 0.053	2.84 ± 0.043
PDIVGHEFTLSFTYELK [BRR2]	2 ± 0.038	2.06 ± 0.036	2.15 ± 0.05	2.21 ± 0.033
IIKMTIPYAAKLLFQEL [RET1]	2.18 ± 0.1	2.08 ± 0.12	1.75 ± 0.22	1.9 ± 0.073
TPSTNEPYARVSGDLNP [FAS1]	2.96 ± 0.074	2.6 ± 0.077	2.46 ± 0.15	2.39 ± 0.073
IQAGKFDNKSTSEEQEA [SNF2]	3.28 ± 0.068	3.36 ± 0.16	2.84 ± 0.17	2.94 ± 0.12
QDREITNWARTTFRNEY [MED8]	2.49 ± 0.09	2.07 ± 0.083	2.47 ± 0.092	2.51 ± 0.096
KLDLFKYFTELSHYIRQ [MED1]	1.52 ± 0.084	1.44 ± 0.14	1.24 ± 0.17	1.33 ± 0.079
LITLFNKGELETQPGCN [RPO31]	2.71 ± 0.1	3.26 ± 0.083	2.98 ± 0.097	2.94 ± 0.11
GTSLTIQHIAAAMVPFI [CDC53]	2.75 ± 0.05	2.91 ± 0.046	2.6 ± 0.066	3.03 ± 0.043
HHNDISNDSQSHFDYNT [YCG1]	1.89 ± 0.18	2.16 ± 0.17	2.49 ± 0.14	2.39 ± 0.16
ASIGQAAEQQSKAFKES [SRP54]	3.45 ± 0.19	3.33 ± 0.17	3.14 ± 0.096	3.16 ± 0.082
DAFRVHICGICGLMTVI [RPB2]	1.33 ± 0.084	1.43 ± 0.095	1.34 ± 0.16	1.43 ± 0.062
TEEKCKNFIESESVGAF [YJL039C/NUP192]	3.43 ± 0.15	3.23 ± 0.088	3.33 ± 0.062	3.47 ± 0.056
KPVYKGKKLTDEINTAQ [RET1]	2.92 ± 0.12	2.99 ± 0.094	2.75 ± 0.084	3.2 ± 0.077
RIGVLQARMMQQQSADH [NSL1]	2.88 ± 0.062	3.06 ± 0.057	3.06 ± 0.046	2.96 ± 0.042
